Assay results as given in PMC3066550.

Legend:
Test in all cases: co-IP
[1] = target: LANADBD HIF876AAA (Kaposi's sarcoma-associated herpesvirus (KSHV; human herpesvirus 8))
[2] = target: LANADBD K871A (Kaposi's sarcoma-associated herpesvirus (KSHV; human herpesvirus 8))
[3] = target: LANADBD KDT950AAA (Kaposi's sarcoma-associated herpesvirus (KSHV; human herpesvirus 8))
[4] = target: LANADBD LSQ912AAA (Kaposi's sarcoma-associated herpesvirus (KSHV; human herpesvirus 8))
[5] = target: LANADBD R873A (Kaposi's sarcoma-associated herpesvirus (KSHV; human herpesvirus 8))
[6] = target: LANADBD SKK953AAA (Kaposi's sarcoma-associated herpesvirus (KSHV; human herpesvirus 8))
[7] = target: LANADBD WE963AA (Kaposi's sarcoma-associated herpesvirus (KSHV; human herpesvirus 8))
[8] = target: LANADBD YGL907AAA (Kaposi's sarcoma-associated herpesvirus (KSHV; human herpesvirus 8))
[9] = target: LANADBD YR879AA (Kaposi's sarcoma-associated herpesvirus (KSHV; human herpesvirus 8))

With “wild-type KSHV LANA DNA-binding domain (LANADBD, aa 775-1003) (domain or fragment)” the dimerization activity by IP, percent of wt [1] was 127 % of wt, the dimerization activity by IP, percent of wt [2] was 74 % of wt and the dimerization activity by IP, percent of wt [3] was 74 % of wt. For the same substance, the dimerization activity by IP, percent of wt [4] was 248 % of wt, the dimerization activity by IP, percent of wt [5] was 135 % of wt and the dimerization activity by IP, percent of wt [6] was 64 % of wt. The dimerization activity by IP, percent of wt [7] was 29 % of wt, the dimerization activity by IP, percent of wt [8] was 73 % of wt and the dimerization activity by IP, percent of wt [9] was 73 % of wt.
